9 molecules from patent US20110165066A1 (AbbVie / Abbott, published 2011) can be followed below.

In one assay the target is T1, mouse IL-13 (mouse, UniProt P20109 26-131, limits assumed).
T1 construct: also called mIL-13; murine IL-13
T1 sequence (looked up): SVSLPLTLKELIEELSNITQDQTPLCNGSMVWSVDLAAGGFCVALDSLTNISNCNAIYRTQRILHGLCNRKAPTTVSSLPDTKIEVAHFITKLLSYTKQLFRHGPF
Nature of the assay: indirect ELISA, captured mAb, biotinylated mouse IL-13. The method, then:
Murine anti-human IL-13 mAbs were prepared at various concentrations ranging from 0.1 to 100 ng/ml in PBS containing 0.1% BSA; 50 ul of each antibody dilution was added to the coated ELISA plate and incubated for 1 hour at room temperature. Wells were washed 3 times with PBS containing 0.05% Tween-20. […] Wells were washed 3 times with PBS containing 0.05% Tween-20. Streptavidin HRP (Pierce #21126, Rockland, Ill.) was diluted 1:20000 in PBS containing 0.1% BSA; […] was added and the plates incubated for 1 hour at room temperature. Plates were washed 3 times with PBS containing 0.05% Tween-20. Fifty microliters of TMB solution (Sigma # T0440, St. Louis, Mo.) was added to each well and incubated for 10 minutes at room temperature. The reaction was stopped by addition of 1N sulphuric acid. Plates were read spectrophotmetrically at a wavelength of 450 nm.
On the technique in general: ELISA stands for enzyme-linked immunosorbent assay.

The target of assay [1] is T2, human IL-13 wild type (human, UniProt P35225 35-146).
T2 construct: also called h IL-13; h IL-13 wt
T2 sequence (P35225 other isoform, or with tags, fused parts or gaps limits assumed): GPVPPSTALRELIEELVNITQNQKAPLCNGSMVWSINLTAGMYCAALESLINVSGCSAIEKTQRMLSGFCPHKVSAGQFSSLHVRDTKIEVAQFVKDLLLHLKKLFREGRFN
Briefly: SPR (Biacore), mAb captured, IL-13 as analyte. As for the experimental part: (§1) The BIACORE assay (Biacore, Inc, Piscataway, N.J.) determines the affinity of antibodies with kinetic measurements of on-, off-rate constants. […] All chemicals were obtained from Biacore® AB (Uppsala, Sweden) or otherwise from a different source as described in the text. Approximately 5000 RU of goat anti-mouse IgG, (Fcγ), fragment specific polyclonal antibody (Pierce Biotechnology Inc, Rockford, Ill.) diluted in 10 mM sodium acetate (pH 4.5) was directly immobilized across a CM5 research grade biosensor chip using a standard amine coupling kit according to manufacturer's instructions and procedures at 25 μg/ml. Unreacted moieties on the biosensor surface were blocked with ethanolamine. Modified carboxymethyl dextran surface in flowcell 2 and 4 was used as a reaction surface. Unmodified carboxymethyl dextran without goat anti-mouse IgG in flow cell 1 and 3 was used as the reference surface. For kinetic analysis, rate equations derived from the 1:1 Langmuir binding model were fitted simultaneously to association and dissociation phases of all eight injections (using global fit analysis) with the use of Biaevaluation 4.0.1 software. Purified antibodies were diluted in HEPES-buffered saline for capture across goat anti-mouse IgG specific reaction surfaces. Mouse antibodies to be captured as a ligand (25 μg/ml) were injected over reaction matrices at a flow rate of 5 μl/min. The association and dissociation rate constants, kₒₙ (unit M⁻¹s⁻¹) and koff (unit s⁻¹) were determined under a continuous flow rate of 25 μl/min Rate constants were derived by making kinetic binding measurements at ten different antigen concentrations ranging from 10-200 nM. […] Binding is recorded as a function of time and kinetic rate constants are calculated.

Assay [2] concerns the target T3, human IL-13 variant (R130Q) (human, UniProt P35225 35-146).
T3 construct: called R110Q in the assay descriptions (mature numbering); also called h IL-13v; hIL-13v
Briefly: SPR (Biacore), mAb captured, IL-13 as analyte. As for the experimental part:
as §1
Background: SPR reads the build-up and loss of mass on a sensor chip optically.

The target of assay [3] is T2, human IL-13 wild type. Nature of the assay: cell-based or functional assay.
Assay [4] addresses T3, human IL-13 variant (R130Q). Nature of the assay: cell-based or functional assay.
The target of the next assay is cynomolgus IL-13 (cynomolgus, UniProt Q0PW92 21-132). Briefly: cell-based or functional assay.
cynomolgus IL-13, sequence (Q0PW92 entry or part of it): as the sequence (P35225 other isoform, or with tags, fused parts or gaps limits assumed) above, with G1S, R10K, M42V, S67N, H83R, L100V, R110Q counted along it
For assay [5], the target named is T2, human IL-13 wild type. Nature of the assay: SPR (Biacore). As for the experimental part: as §1
Assay [6] deals with T2, human IL-13 wild type. Nature of the assay: cell-based or functional assay. The source holds these as a separate data set.
In assay [7] the target is T3, human IL-13 variant (R130Q). Briefly: cell-based or functional assay. The source holds these as a separate data set.

T3 sequence (P35225 35-146 limits assumed, stated change not applied): as the sequence (P35225 other isoform, or with tags, fused parts or gaps limits assumed) above, with R110Q counted along it

B1: 25C8 (antibody, V domains shown)
VH: QVQLQQPGAELVRPGASVQLSCKASGYTFTSSWIHWVNQRPGQGLEWIGMIHPSDSETRLNQKFKDKATLTVDKSSSTAYMQLSSPTSEDSAVYYCASTATDFDYWGQGTTLTVSS
VL: DVVLTQTPLSLPVNIGDQASISCKSTKSLLNSDGFTYLDWYLQKPGQSPQLLIYLVSNRFSGAPDRFSGSGSGTDFTLKISRVEAEDLGVYYCFQHNYLPLTFGAGTNLELKR
In the case of B1, the binding result with mouse IL-13 was “no binding (tested: 0.1 to 100 ng/ml)”. Besides, the Kd in the assay with human IL-13 wild type [1] stood at 0.0754 nM; in assay [2] it was 0.0631 nM. For the same molecule, the koff in the assay with human IL-13 wild type [1] was 2.6e-05 s⁻¹; in assay [2], 8.45e-06 s⁻¹. For the same molecule, the kon amounted to 345000 M⁻¹ s⁻¹ with human IL-13 wild type [1] and 134000 M⁻¹ s⁻¹ in [2]. Further, the figures for the “Average IC50, IL-13-induced TARC production by A-549 cells” value (“Average IC50” below) (in the assay with human IL-13 wild type [3]; in assay [4]; with cynomolgus IL-13) were 0.23 nM, 0.26 nM and 0.188 nM, respectively.

B2: 3E5 (antibody, V domains shown)
VH: QVQLKESGPGLVAPSQSLSITCTVSGFSLTGSSINWVRQPPGKGLEWLGMIWGDGRIDYNSVLKSRLSISKDSSKSQVFLKMNSLQADDTARYYCARDGYYPYAMVYWGQGTSVTVSS
VL: NIVLTQSPASLAVSLGQRATIFCRASESVDSYGNSFMHWYQQKSGQPPKLLIYLASNLESGVPARFSGSGSRTDFTLTIDPVEADDAATFYCQQNNENPRTFGGGTKLEIKR
As for B2, in the assay with mouse IL-13, the binding result was “no binding (tested: 0.1 to 100 ng/ml)”. In addition, the Kd with human IL-13 wild type [1] turned out to be 0.457 nM; in assay [2] it was 0.253 nM. Besides, the koff with human IL-13 wild type [1] was 0.000658 s⁻¹; in [2] it was 0.000468 s⁻¹. The figures for the kon (with human IL-13 wild type [1]; in assay [2]) were 1.44e+06 M⁻¹ s⁻¹ and 1.85e+06 M⁻¹ s⁻¹, respectively. The “Average IC50” value in the assay with human IL-13 wild type [3] was 0.13 nM; in assay [4] it was 0.3 nM; with cynomolgus IL-13, 0.161 nM.

B3: 5D3 (antibody, V domains shown)
VH: QVQLKESGPGLVAPSQSLSITCTVSGFSLTGYNINWVRQPPGKGLEWLGLIWGDGNTAFNSALKSRLSISKDNSKSQVFLKLNSLQTDDTARYYCARDGYYPYAIKYWGQGTSVTVSS
VL: NIVLTQSPASLAVSLGQRATISCRASETVDSYGNSFMHWYQQKPGQPPKLLIYLASNLESGVPARFSGSGSRTDFTLTIDPVEADDAATYYCQQNNEDPRTFGGGTKLEIKR
Take B3: the binding result in the assay with mouse IL-13 is recorded as “no binding (tested: 0.1 to 100 ng/ml)”. The Kd was determined as 0.296 nM in the assay with human IL-13 wild type [1] and 0.387 nM in assay [2]. Further, the koff amounted to 0.000483 s⁻¹ with human IL-13 wild type [1] and 0.000584 s⁻¹ in [2]. The kon in the assay with human IL-13 wild type [1] amounted to 1.63e+06 M⁻¹ s⁻¹; in [2], 1.51e+06 M⁻¹ s⁻¹. Besides, the “Average IC50” value in the assay with human IL-13 wild type [3] was 0.705 nM; in assay [4], 0.29 nM; with cynomolgus IL-13, 0.291 nM.

B4: 5G1.1 (antibody, human IgG1, V domains shown)
VH: EVQLVQSGAEVKKPGASVKVSCKASGYTFTTYGVSWVRQAPGQGLEWIGEIYPGNYNTYYNEKFRGKATMTTDTSTSTAYMELRSLRSDDTAVYYCSRWRTSYFSDYGYFDYWGQGTTVTVSS
VL: DVVMTQSPLSLPVTLGQPASISCRSSQSLVHSHGNTYLHWYQQRPGQSPRLLIYTVSNRFSGVPDRFSGSGSGTDFTLKISRVEAEDVGVYYCSQSTHVPYTFGGGTKVEIKR
notes: Humanized
In the case of B4, in the assay with human IL-13 wild type [5], binding was put at a Kd of 0.0272 nM, the koff amounted to 2.14e-05 s⁻¹ and the kon is 786000 M⁻¹ s⁻¹. The “Potency (IC50), A-549 bioassay” value with human IL-13 wild type [6] was found to be 0.029 nM. Besides, the “Potency (IC50), A-549 bioassay” value in assay [7] was 0.0741 nM.

B5: 5G1.5 (antibody, human IgG1, V domains shown)
VH: QVQLVQSGAEVKKPGASVKVSCKASGYTFTTYGVSWVRQAPGQGLEWIGEIYPGNYNTYYNEKFRGKATLTADKSTSTAYMELSSLRSEDTAVYYCSRWRTSYFSDYGYFDYWGQGTLVTVSS
VL: DIVMTQSPLSLPVTPGQPASISCRSSQSLVHSHGNTYLHWYLQKPGQSPKLLIYTVSNRFSGVPDRFSGSGSGTDFTLKISRVEAEDVGVYYCSQSTHVPYTFGGGTKVEIK
notes: Humanized; The heavy chain row is printed 'VN 5G1.5'
B5: in the assay with human IL-13 wild type [5], the Kd worked out at 0.022 nM, the koff stood at 1.91e-05 s⁻¹ and the kon was 869000 M⁻¹ s⁻¹. Moreover, the “Potency (IC50), A-549 bioassay” value with human IL-13 wild type [6] amounted to 0.114 nM. In addition, the “Potency (IC50), A-549 bioassay” value in assay [7] came out at 0.0655 nM.

B6: 5G1.2 (antibody, human IgG1, V domains shown)
VH: EVQLVQSGAEVKKPGASVKVSCKASGYTFTTYGVSWVRQAPGQGLEWIGEIYPGNYNTYYNEKFRGKATLTADKSTSTAYMELSSLRSDDTAVYFCSRWRTSYFSDYGYFDYWGQGTTVTVSS
VL: DVVMTQSPLSLPVTLGQPASISCRSSQSLVHSHGNTYLHWYQQRPGQSPRLLIYTVSNRFSGVPDRFSGSGSGTDFTLKISRVEAEDVGVYFCSQSTHVPYTFGGGTKVEIKR
notes: Humanized
In the assay with human IL-13 wild type [5], B6 yielded an equilibrium dissociation constant (Kd) of 0.105 nM, a koff of 8.81e-05 s⁻¹ and a kon of 835000 M⁻¹ s⁻¹. For the same molecule, the “Potency (IC50), A-549 bioassay” value with human IL-13 wild type [6] amounted to 0.0295 nM. Besides, the “Potency (IC50), A-549 bioassay” value in assay [7] is 0.0553 nM.

B7: 13C5.1 (antibody, human IgG1, V domains shown)
VH: EVTLKESGPVLVKPTETLTLTCTFSGFSLSTSDMGVDWIRQPPGKALEWLAHIWWDDVKRYNPALKSRLTISKDTSKSQVVLTMTNMDPVDTATYYCARTVSSGYIYYAMDYWGQGTTVTVSS
VL: DIQMTQSPSSLSASVGDRVTITCRASQDIRNYLNWYQRKPGKVVKLLIYYTSKLHSGVPSRFSGSGSGTDFTLTISSLQPEDVATYYCQQGNTLPLTFGGGTKVEIKR
notes: Humanized
In the assay with human IL-13 wild type [5], B7 yielded a Kd of 0.71 nM, a koff of 0.000474 s⁻¹ and a kon of 668000 M⁻¹ s⁻¹. Besides, the “Potency (IC50), A-549 bioassay” value with human IL-13 wild type [6] turned out to be 0.868 nM. The “Potency (IC50), A-549 bioassay” value in [7] is 0.369 nM.

B8: 21D9 (antibody, V domains shown)
VH: QVQLQQSGDDLVKPGASVKLSCKASGYTFTSYWINWIKQRPGQGLEWIGHIAPGSGETYDNEMFKDKAKLTVDTSSNTAYIHLSSLSSEDSAVYFCARGSFTFFYAMDYWGQGTSVTVSS
VL: DVLMTQTPLSLPVSLGDQASISCRSSQNIVHSNGKTYLEWYLQRPGQSPKLLIYKVSNRFSGVPDRFSGSGSGTDFTLKISRVEAEDLGVYYCFQGSHVPYTFGGGTKLEIKR
Turning to B8, the binding result in the assay with mouse IL-13 was “no binding (tested: 0.1 to 100 ng/ml)”. Further, the values for the Kd (in the assay with human IL-13 wild type [1]; in assay [2]) were 0.0772 nM and 0.0744 nM, respectively. The values for the koff (in the assay with human IL-13 wild type [1]; in [2]) were 6.58e-05 s⁻¹ and 6.18e-05 s⁻¹, respectively. In addition, the kon with human IL-13 wild type [1] worked out at 852000 M⁻¹ s⁻¹; in assay [2], 831000 M⁻¹ s⁻¹. Besides, the “Average IC50” value with human IL-13 wild type [3] stood at 0.0682 nM; in [4], 0.136 nM; with cynomolgus IL-13, 0.34 nM.

B9: 22D10 (antibody, V domains shown)
VH: QVQLQQSGDDLVKPGASVKLSCKASGYTFTSYWINWIKQRPGQGLEWIGHIAPGSGETYDNEMFKDKAKLTVDTSSSTAYIHLSSLSSEDSAVYFCARGSFTFFYAMDYWGQGTSVTVSS
VL: DVLMTQTPLSLPVSLGDQASISCRSSQNIVHSNGKTYLEWYLQRPGQSPKLLIYKVSNRFSGVPDRFSGSGSGTDFTLKISRVEAEDLGVYYCFQGSHVPYTFGGGTKLEIKR
For the molecule B9, the binding result with mouse IL-13 is “no binding (tested: 0.1 to 100 ng/ml)”. Moreover, the dissociation constant Kd in the assay with human IL-13 wild type [1] was 0.356 nM; in [2] it was 0.632 nM. In addition, the koff in the assay with human IL-13 wild type [1] amounted to 6.5e-05 s⁻¹; in [2], 0.000155 s⁻¹. For the same molecule, the on-rate (kon) with human IL-13 wild type [1] amounted to 182000 M⁻¹ s⁻¹; in assay [2], 245000 M⁻¹ s⁻¹. The “Average IC50” value was 0.284 nM with human IL-13 wild type [3], 0.54 nM in assay [4] and 6.11 nM with cynomolgus IL-13.

Usually Kd stands for a measure of binding affinity in units of concentration. As usually defined, the koff is a measure of how fast the partners let go of each other. Low values mean a long-lived complex, high ones a short-lived complex. A word on the kon: it is the rate constant with which the complex forms.
